Reference: the supplement of paper PMC9233669
Variants at the floor of the assay were thinned out.

Experiments:
biotinyl-Met-oxazolone = assay: self-aminoacylation, catalytic enhancement (BMO) (fold over background); higher = more active; k-Seq, kA / k0A0; sequences stand for … in GGGAAUGGAUCCACAUCUACGAAUUC…UUCACUGCAGACUUGACGAAGCUG
In short: (§1)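 Catalytic enhancement equals the median kA over the uncatalyzed rate, the latter read from the low-activity peak of a bimodal Gaussian fit. Values of kA came from fitting each sequence's fraction reacted to a pseudo-first-order model, with 1000 bootstraps. Reacted RNA was captured with streptavidin and quantified by triplicate qPCR and Illumina sequencing after 90 minutes at room temperature with 2–1250 μM biotinyl-aminoacyl-oxazolone and 0.43 μM mutagenized RNA pools bearing a 21-nt variable region.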

biotinyl-Ile-oxazolone = assay: self-aminoacylation, catalytic enhancement (BIO) (fold over background); higher = more active; k-Seq, kA / k0A0; sequences stand for … in GGGAAUGGAUCCACAUCUACGAAUUC…UUCACUGCAGACUUGACGAAGCUG
In short: as §1

biotinyl-Phe-oxazolone = assay: self-aminoacylation, catalytic enhancement (BFO) (fold over background); higher = more active; k-Seq, kA / k0A0; sequences stand for … in GGGAAUGGAUCCACAUCUACGAAUUC…UUCACUGCAGACUUGACGAAGCUG
In short: as §1

biotinyl-Val-oxazolone = assay: self-aminoacylation, catalytic enhancement (BVO) (fold over background); higher = more active; k-Seq, kA / k0A0; sequences stand for … in GGGAAUGGAUCCACAUCUACGAAUUC…UUCACUGCAGACUUGACGAAGCUG
In short: as §1

biotinyl-Trp-oxazolone = assay: self-aminoacylation, catalytic enhancement (BWO) (fold over background); higher = more active; k-Seq, kA / k0A0; sequences stand for … in GGGAAUGGAUCCACAUCUACGAAUUC…UUCACUGCAGACUUGACGAAGCUG
In short: as §1

biotinyl-Leu-oxazolone = assay: self-aminoacylation, catalytic enhancement (BLO) (fold over background); higher = more active; k-Seq, kA / k0A0; sequences stand for … in GGGAAUGGAUCCACAUCUACGAAUUC…UUCACUGCAGACUUGACGAAGCUG
In short: as §1

Sequence	self-aminoacylation (biotinyl-Met-oxazolone)	self-aminoacylation (biotinyl-Ile-oxazolone)	self-aminoacylation (biotinyl-Phe-oxazolone)	self-aminoacylation (biotinyl-Val-oxazolone)	self-aminoacylation (biotinyl-Trp-oxazolone)	self-aminoacylation (biotinyl-Leu-oxazolone)
AACUUUUCUAAUAGUCGCAAG [Fam3.1 aminoacylation ribozyme variant]	2.11	1.97	3.55	1.71	2.05	2.33
AAGCUUGCUAAUAGUCGCAAU [Fam3.1 aminoacylation ribozyme variant]	2.34	2.93	2.59	–	2.66	–
AAGCUUGCUUAUAGUCGCAAG [Fam3.1 aminoacylation ribozyme variant]	–	2.13	3.55	–	–	–
AAGUAUGCUAAUAGUCGCGAG [Fam3.1 aminoacylation ribozyme variant]	–	2.14	5.66	–	4.06	2.21
AAGUUCGCCAAUAGUCGCAAG [Fam3.1 aminoacylation ribozyme variant]	2.18	2.29	2.83	–	2.98	2.67
AAUUUUGGUAAUAGUCGCAAG [Fam3.1 aminoacylation ribozyme variant]	2.19	2.06	2.19	–	–	–
ACGUUUGCUAAUAGUCGCAAA [Fam3.1 aminoacylation ribozyme variant]	–	2.01	2.87	–	2.36	–
ACGUUUGCUAAUAGUCGCAUG [Fam3.1 aminoacylation ribozyme variant]	2.14	2.21	3.06	–	–	2.5
ACGUUUGCUAAUAGUCGCGAG [Fam3.1 aminoacylation ribozyme variant]	–	2.65	10.4	2.12	–	2.48
ACUACCCUGGUCAUCGAGGGA [Fam2.1 aminoacylation ribozyme variant]	3.62	2.12	2.42	–	3.04	3.13
AUCACCCUGGUCAUCGAGCGA [Fam2.1 aminoacylation ribozyme variant]	2.16	2.01	–	2.53	2.62	3.35
AUCACCCUGGUCAUCGAGGGA [Fam2.1 aminoacylation ribozyme variant]	2.2	–	12.5	2.03	2.94	3.12
AUUACCCUGGACUUCGAGUGA [Fam2.1 aminoacylation ribozyme variant]	2.96	–	11.4	2.17	4.38	3.17
AUUACCCUGGUCAUCGAGCCA [Fam2.1 aminoacylation ribozyme variant]	2.36	2.01	2.92	–	3.35	2.23
AUUACCGUGGUGAUCGAGUGA [Fam2.1 aminoacylation ribozyme variant]	3.87	–	15.6	2.31	5.02	3.67
AUUCACCGAGGUCAUCGGGUC [Fam2.2 aminoacylation ribozyme variant]	–	2.18	7.57	2.71	–	2.52
AUUCACCUAAGUCAUCGGGUA [Fam2.2 aminoacylation ribozyme variant]	2.44	2.81	–	2.62	2.8	3
AUUCACCUAGGGCAUCGGGGG [Fam2.2 aminoacylation ribozyme variant]	2.65	2.98	7.22	2.93	–	3.63
AUUCACGUAGGUCAUCGGGCG [Fam2.2 aminoacylation ribozyme variant]	2.41	2.07	5.97	2.56	–	2.57
AUUCACUUAGUUCAUCGGGUG [Fam2.2 aminoacylation ribozyme variant]	2.58	2.18	11.1	–	3.28	2.93
AUUGCCCUGGUCAUCGAGCGA [Fam2.1 aminoacylation ribozyme variant]	2.55	–	3.91	2.33	3.11	3.48
CCACACUUCACGCAAUCGGCC [Fam1B.1 aminoacylation ribozyme variant]	2.28	2.2	13.9	3.47	4.2	–
CCACACUUCGCGCAAUCGGUC [Fam1B.1 aminoacylation ribozyme variant]	–	2.21	10.5	2.51	2.77	2.41
CCCCGCUUCAAGCAAUCGGUC [Fam1B.1 aminoacylation ribozyme variant]	2.12	–	142	2.69	70.4	3.73
CCGCGCUUCAAGCAAUCGGUC [Fam1B.1 aminoacylation ribozyme variant]	2.37	–	158	2.74	77.2	3.16
CGACACUUCAAGCAAUCGGUG [Fam1B.1 aminoacylation ribozyme variant]	2.37	2.4	–	2.27	–	2.22
CUACUGCAAACAAUCGGCCUG [Fam1A.1 aminoacylation ribozyme variant]	2.1	–	3.31	2.27	2.81	2.27
CUACUUCAAACAUUCGGGCUG [Fam1A.1 aminoacylation ribozyme variant]	2.06	2.24	–	2.14	–	–
CUUCACCUAGAUCAUCGGGUG [Fam2.2 aminoacylation ribozyme variant]	3.54	–	8.35	2.12	3.41	2.86
UUUCACCUAGGUAAUCGGGUG [Fam2.2 aminoacylation ribozyme variant]	2.66	2.1	13.1	–	3.75	2.27
